We go through 5 molecules from article PMC2966277 (Cell, 2010).

The target in series [1] is microtubules (UniProt Q6B856 1-445). The experiment in a line: co-sedimentation.
The target of series [2] is T1, GFP-PRC1-FL (GFP-tagged full-length PRC1, aa 1-620) (human), O43663.
T1 chain: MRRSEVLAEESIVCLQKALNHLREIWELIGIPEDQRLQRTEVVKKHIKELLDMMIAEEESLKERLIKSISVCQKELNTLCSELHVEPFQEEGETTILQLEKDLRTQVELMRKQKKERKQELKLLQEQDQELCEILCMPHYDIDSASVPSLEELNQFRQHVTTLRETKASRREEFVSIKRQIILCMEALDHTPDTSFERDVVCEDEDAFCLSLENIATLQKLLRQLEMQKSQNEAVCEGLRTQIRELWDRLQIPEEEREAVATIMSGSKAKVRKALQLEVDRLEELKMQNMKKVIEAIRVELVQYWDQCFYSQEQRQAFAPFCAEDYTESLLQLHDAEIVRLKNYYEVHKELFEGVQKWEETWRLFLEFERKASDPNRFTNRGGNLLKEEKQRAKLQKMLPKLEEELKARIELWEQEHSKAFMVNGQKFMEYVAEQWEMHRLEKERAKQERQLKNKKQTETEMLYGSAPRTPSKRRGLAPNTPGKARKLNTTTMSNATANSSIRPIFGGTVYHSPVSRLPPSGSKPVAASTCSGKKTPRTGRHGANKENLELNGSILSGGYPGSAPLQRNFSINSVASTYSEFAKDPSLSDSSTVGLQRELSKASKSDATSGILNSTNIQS
The experiment in a line: single-molecule fluorescence intensity analysis. To be noted: remark: other sources report otherwise.

In series [3] the target is T2, PRC1-FL (untagged full-length PRC1) (human), O43663.
T2 chain: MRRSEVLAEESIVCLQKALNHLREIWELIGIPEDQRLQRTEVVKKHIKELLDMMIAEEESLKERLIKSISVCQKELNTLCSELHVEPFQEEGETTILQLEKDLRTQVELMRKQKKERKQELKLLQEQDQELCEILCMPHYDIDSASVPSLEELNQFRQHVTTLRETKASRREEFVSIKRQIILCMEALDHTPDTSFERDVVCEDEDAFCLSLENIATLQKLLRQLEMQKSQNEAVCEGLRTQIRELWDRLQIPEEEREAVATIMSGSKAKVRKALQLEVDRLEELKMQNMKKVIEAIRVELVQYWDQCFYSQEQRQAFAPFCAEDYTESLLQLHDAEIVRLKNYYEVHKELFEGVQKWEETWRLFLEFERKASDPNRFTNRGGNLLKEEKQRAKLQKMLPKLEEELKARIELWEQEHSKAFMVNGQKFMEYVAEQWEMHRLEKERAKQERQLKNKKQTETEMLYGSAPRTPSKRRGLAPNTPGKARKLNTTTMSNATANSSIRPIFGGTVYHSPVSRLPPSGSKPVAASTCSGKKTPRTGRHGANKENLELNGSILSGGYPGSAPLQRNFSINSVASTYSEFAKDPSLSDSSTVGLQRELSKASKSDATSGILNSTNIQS
The conditions noted are these: remark: other sources report otherwise.

Series [4] concerns the molecule itself. The series can be described thus: SEC-MALS. In general terms: In gel filtration, larger molecules generally elute earlier.

B1: PRC1-S (aa 341-466) (domain or fragment, human, UniProt O43663 341-466, looked up)
chain: LKNYYEVHKELFEGVQKWEETWRLFLEFERKASDPNRFTNRGGNLLKEEKQRAKLQKMLPKLEEELKARIELWEQEHSKAFMVNGQKFMEYVAEQWEMHRLEKERAKQERQLKNKKQTETEMLYGS
A word on the Kd: it is a measure of binding affinity in units of concentration. Low readings indicate higher affinity, high ones lower affinity. The molecule B1 displayed a Kd in series [1] of 3300 ± 1800 nM.

B2: GFP-PRC1-FL (GFP-tagged full-length PRC1, aa 1-620), O43663 1-620 (natural protein)
chain: MRRSEVLAEESIVCLQKALNHLREIWELIGIPEDQRLQRTEVVKKHIKELLDMMIAEEESLKERLIKSISVCQKELNTLCSELHVEPFQEEGETTILQLEKDLRTQVELMRKQKKERKQELKLLQEQDQELCEILCMPHYDIDSASVPSLEELNQFRQHVTTLRETKASRREEFVSIKRQIILCMEALDHTPDTSFERDVVCEDEDAFCLSLENIATLQKLLRQLEMQKSQNEAVCEGLRTQIRELWDRLQIPEEEREAVATIMSGSKAKVRKALQLEVDRLEELKMQNMKKVIEAIRVELVQYWDQCFYSQEQRQAFAPFCAEDYTESLLQLHDAEIVRLKNYYEVHKELFEGVQKWEETWRLFLEFERKASDPNRFTNRGGNLLKEEKQRAKLQKMLPKLEEELKARIELWEQEHSKAFMVNGQKFMEYVAEQWEMHRLEKERAKQERQLKNKKQTETEMLYGSAPRTPSKRRGLAPNTPGKARKLNTTTMSNATANSSIRPIFGGTVYHSPVSRLPPSGSKPVAASTCSGKKTPRTGRHGANKENLELNGSILSGGYPGSAPLQRNFSINSVASTYSEFAKDPSLSDSSTVGLQRELSKASKSDATSGILNSTNIQS
The stoichiometry N is a count of units in the complex or per binding partner. The molecule B2 returned a stoichiometry N in series [2] of 2.

B3: PRC1-FL (untagged full-length PRC1), O43663 1-620 (natural protein)
chain: MRRSEVLAEESIVCLQKALNHLREIWELIGIPEDQRLQRTEVVKKHIKELLDMMIAEEESLKERLIKSISVCQKELNTLCSELHVEPFQEEGETTILQLEKDLRTQVELMRKQKKERKQELKLLQEQDQELCEILCMPHYDIDSASVPSLEELNQFRQHVTTLRETKASRREEFVSIKRQIILCMEALDHTPDTSFERDVVCEDEDAFCLSLENIATLQKLLRQLEMQKSQNEAVCEGLRTQIRELWDRLQIPEEEREAVATIMSGSKAKVRKALQLEVDRLEELKMQNMKKVIEAIRVELVQYWDQCFYSQEQRQAFAPFCAEDYTESLLQLHDAEIVRLKNYYEVHKELFEGVQKWEETWRLFLEFERKASDPNRFTNRGGNLLKEEKQRAKLQKMLPKLEEELKARIELWEQEHSKAFMVNGQKFMEYVAEQWEMHRLEKERAKQERQLKNKKQTETEMLYGSAPRTPSKRRGLAPNTPGKARKLNTTTMSNATANSSIRPIFGGTVYHSPVSRLPPSGSKPVAASTCSGKKTPRTGRHGANKENLELNGSILSGGYPGSAPLQRNFSINSVASTYSEFAKDPSLSDSSTVGLQRELSKASKSDATSGILNSTNIQS
B3 registered a stoichiometry N in series [3] of 2.

B4: PRC1-NSΔC (aa 1-486) (domain or fragment, human, UniProt O43663 1-486, looked up)
chain: MRRSEVLAEESIVCLQKALNHLREIWELIGIPEDQRLQRTEVVKKHIKELLDMMIAEEESLKERLIKSISVCQKELNTLCSELHVEPFQEEGETTILQLEKDLRTQVELMRKQKKERKQELKLLQEQDQELCEILCMPHYDIDSASVPSLEELNQFRQHVTTLRETKASRREEFVSIKRQIILCMEALDHTPDTSFERDVVCEDEDAFCLSLENIATLQKLLRQLEMQKSQNEAVCEGLRTQIRELWDRLQIPEEEREAVATIMSGSKAKVRKALQLEVDRLEELKMQNMKKVIEAIRVELVQYWDQCFYSQEQRQAFAPFCAEDYTESLLQLHDAEIVRLKNYYEVHKELFEGVQKWEETWRLFLEFERKASDPNRFTNRGGNLLKEEKQRAKLQKMLPKLEEELKARIELWEQEHSKAFMVNGQKFMEYVAEQWEMHRLEKERAKQERQLKNKKQTETEMLYGSAPRTPSKRRGLAPNTPGKAR
For B4, in series [4], the “stoichiometry N” value stood at 2.

B5: PRC1-SC (aa 341-620) (domain or fragment, human, UniProt O43663 341-620, looked up)
chain: LKNYYEVHKELFEGVQKWEETWRLFLEFERKASDPNRFTNRGGNLLKEEKQRAKLQKMLPKLEEELKARIELWEQEHSKAFMVNGQKFMEYVAEQWEMHRLEKERAKQERQLKNKKQTETEMLYGSAPRTPSKRRGLAPNTPGKARKLNTTTMSNATANSSIRPIFGGTVYHSPVSRLPPSGSKPVAASTCSGKKTPRTGRHGANKENLELNGSILSGGYPGSAPLQRNFSINSVASTYSEFAKDPSLSDSSTVGLQRELSKASKSDATSGILNSTNIQS
Molecule B5 registered a Kd in series [1] of 600 ± 300 nM.
